Assay results published in US9732156B2, “Methods of treating rheumatoid arthritis using antibodies to matrix metalloproteinase 9” (Gilead Biologics, Inc., priority 2012, dated 2017).

Experiments:
[1] = test system: Lewis rats; conditions: rat, in vivo
Method: AB0041 was evaluated for safety in Lewis rats in comparison to the pan-MMP inhibitor, Marimastat, in a 28-day study.
Six rats per group were intravenously administered twice per week with either AB0041 at 50 mg/kg or Vehicle-A (10 mM sodium phosphate, pH 6.5, 140 mM sodium chloride, 0.01% Tween20). In addition, six rats per group were treated with Marimastat or Vehicle-M (50% DMSO/50% water) through a surgically implanted subcutaneous Alzet pump (Alzet, Cupertino, Calif.), which delivered at a rate of 2.5 μl/hour for a period of 28 days. The Marimastat release rate was between 6.8 to 5.7 mg/kg/day.
Animals were observed and scored daily for signs of MSS, such as reluctance to move and avoidance of the use of the hind feet. The following system was used to score resting posture, gait and willingness to move: resting posture was scored as 0 (normal), 1 (resting on one foot) or 2 (resting on neither one foot nor two feet). Gait was scored as either 0 (normal), 1 (avoids use of one hind foot) or 2 (avoids use of both hind feet). Willingness-to-move upon stimulation was scored as either 0 (normal movement), 1 (somewhat reluctant to move), 2 (moderately reluctant to move) or 3 (very reluctant to move). In addition, the body weights were recorded twice weekly.
Total scores were calculated as the sum of gait score, resting posture score and willingness-to-move score for each animal. Mean total scores per group were calculated as the average of the total scores from all individual animals per group per day.
Serum was collected from all rats on one day before and days 1, 7, 10, 14, 17, 21, 24, 28 post administration. Serum was centrifuged at 10,000×g for 10 minutes and collected for storage at −20° C. Serum was subject to multianalyte serum protein analysis (RodentMAPv2.0, IDEXX Laboratories).
Tissues and limbs from the rats were harvested and fixed in 10% neutral buffered formalin for histopathologic analysis using hematoxylin and eosin (H&E).

[2] = test system: collagen-induced arthritis; test: Collagen-induced arthritis (CIA) rat model of established disease; assay type: in vivo; conditions: terminal serum, ELISA
Method: (§1) This example provides additional characterizations of the animals in example 7 that were treated with either vehicle, AB0041 (in the rat model) or AB0046 (in the mouse model) at 2, 10, or 50 mg/Kg, Enbrel at 10 mg/Kg, or methotrexate (MTX) at 0.5 mg/Kg.
(§2) In addition to clinical scoring in Table 6 that was conducted in example 7, paw swelling, ankle diameter and body weights of the treated animals were measured. The measurements were conducted once a week before randomization and three times a week thereafter.
In addition, hind limbs were examined microscopically for soft-tissue changes (edema, tissue/vessel necrosis, inflammatory cell infiltration, and fibroplasias) and cartilage and bone changes (cartilage erosion, bone erosion, periosteal bone formation, synovitis, pannus formation, and joint destruction). […] The severity scores were based on global changes in each limb.
For anti-TNF-alpha scoring, the entire region of the limb anterior to the tarsal-metatarsal joint was scored. Anti-CD68 staining was evaluated using 3-4 images per limb of synovial membranes in the joints formed by the talus bone, with the scores of each membrane averaged and the value assigned as the overall inflammation score. […] Also, MMP9-expressing cells were identified as osteoclasts and cells of the monocyte/macrophage lineage.
(§3) Further, serum panel analyses of terminal serum samples were characterized using ELISA. […] AB0046 titers were measured in terminal serum samples.

[3] = test system: DSS-induced colitis; test: DSS-induced colitis model, treatment of established disease (Example 4); assay type: in vivo, mouse; conditions: for reduction of the incidence of diarrhea: AUC, did not reach statistical significance; for mean endoscopy score: Day 14 (and Day 10), vs Vehicle and AC-1, AB0046 30 mg/kg IP, ENBREL 10 mg/kg IP; for histopathology: inflammation, edema, mucosal necrosis: colons at termination, compared to vehicle; for MMP9 expression in colon by IHC: three colons per group
Source text: The dextran sodium sulfate (DSS)-induced model of colitis is an accepted model for evaluation of inflammatory bowel disease therapeutics. In this model, oral administration of DSS to mice or rats results in damage to the colonic mucosa. Animals receiving DSS develop bloody diarrhea and lose weight. The inflammation and tissue degradation observed in this model is restricted to the mucosa and generally affects the entire colon. […] The localization of disease and the pathology observed in this model is considered to be reminiscent of human ulcerative colitis (UC), including similar inflammatory cell infiltrate, ulceration, and crypt abscesses.
AB0046 was used in the DSS colitis model (in a 14-day treatment model). Treatment began after 5 days of oral exposure to 3% DSS in drinking water, according to the following experimental design: disease induction with 3% DSS was carried out beginning at day 0 through day 5, with treatment beginning at day 6 (treatment details for animals in groups 1-5 given in Table 2, below); animals were sacrificed at day 14. Etanercept (marketed under the trade name ENBREL®) was used as a reference compound for the therapeutic effect of anti-TNFα therapy in this model. AC-1, an irrelevant antibody of matched isotype (IgG1), was used as a control.
The course of disease was evaluated by video endoscopy (at days 6, 10, and 14), animal weight measurements, observation of stool consistency, and post-study histopathology analysis of colons.
Video endoscopy of the lower colon was performed in a blinded fashion using a small animal endoscope; colitis was scored visually on a scale of 1-4 based on the degree of ulceration, friability, and vascularity present in the tissue. Each mouse was assigned a single score corresponding to the most severe damage observed throughout the entire length of the colon examined.
At study termination, the majority of the distal colon was excised from each animal, formalin-fixed, then embedded in paraffin and sectioned for histology. Slides were stained with hematoxylin and eosin and examined by a board-certified veterinary pathologist blinded as to treatment groups. Tissues were scored for inflammation, edema, and mucosal necrosis according to the scoring scale of 1-4 for each parameter. Sum pathology scores were calculated by summing the three individual parameter score means (inflammation, edema and necrosis).
Body weight and the incidence of diarrhea were recorded daily over the course of the study. The evaluation of body weight changes was performed by calculating the area under the curve (AUC) with the trapezoidal rule method; a similar calculation of AUC for stool consistency was performed by assigning incidence of diarrhea a score of 100 and lack of diarrhea a score of 0.
A trend for reduction of systemic disease-associated cytokines by AB0046 was observed. […] Serum MMP-9 levels were not induced (i.e., no difference between no DSS and vehicle groups; interference by drug antibody cannot be ruled out for MMP9 serum level measurements).

[4] = test system: UC; conditions: cited from earlier work
[5] = test system: DSS-induced colitis; test: DSS colitis model, prophylactic treatment (Example 5); assay type: in vivo, mouse
Method: The efficacy of AB0046 in a prophylactic setting was assessed and compared with reference agent Prednisolone. The indicated treatment was given at day −1, with the indicated dosing schedules. Induction of disease with 3% DSS was initiated at day 0 and was as described above. Animals were sacrificed at day 14.

[6] = test system: collagen-induced arthritis; test: CIA mouse model of rheumatoid arthritis; assay type: in vivo
Method: as §1, §2
In addition, hind limbs were examined microscopically for soft-tissue changes (edema, tissue/vessel necrosis, inflammatory cell infiltration, and fibroplasias) and cartilage and bone changes (cartilage erosion, bone erosion, periosteal bone formation, synovitis, pannus formation, and joint destruction). A standard severity score was used: 0=no significant change, 1=minimal, 2=mild, 3=moderate and 4=severe. The severity scores were based on global changes in each limb.
as §3

[7] = Antibody titers in serum of the CIA study; assay type: in vivo, mouse
Method: as §3

[8] = target: T1, MMP9 (Homo sapiens, UniProt P14780); test: Comparison of binding and inhibitory properties of anti-MMP9 antibodies; conditions: AB0045 compared with AB0041
Target sequence in this assay (P14780 94-707, species assumed): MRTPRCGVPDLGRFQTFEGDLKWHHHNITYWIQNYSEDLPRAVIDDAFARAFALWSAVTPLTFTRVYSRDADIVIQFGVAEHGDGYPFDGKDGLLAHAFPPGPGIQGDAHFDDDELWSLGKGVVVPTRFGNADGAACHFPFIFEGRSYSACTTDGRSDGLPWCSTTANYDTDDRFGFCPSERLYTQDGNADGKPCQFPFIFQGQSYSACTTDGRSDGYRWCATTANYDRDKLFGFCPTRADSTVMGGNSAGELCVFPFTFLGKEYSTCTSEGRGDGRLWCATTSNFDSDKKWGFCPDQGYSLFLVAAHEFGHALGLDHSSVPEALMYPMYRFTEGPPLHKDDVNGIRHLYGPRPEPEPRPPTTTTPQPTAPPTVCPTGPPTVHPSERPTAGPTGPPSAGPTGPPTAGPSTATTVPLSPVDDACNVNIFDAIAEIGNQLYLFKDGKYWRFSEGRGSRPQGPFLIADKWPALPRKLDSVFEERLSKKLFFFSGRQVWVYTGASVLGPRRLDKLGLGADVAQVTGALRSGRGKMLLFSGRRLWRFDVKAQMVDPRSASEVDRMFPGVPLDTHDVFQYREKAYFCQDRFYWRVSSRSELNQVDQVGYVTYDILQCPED

[9] = test system: CD4+ T cell; test: EpiScreen ex vivo human T cell activation assay (immunogenicity); assay type: cell-based; conditions: CD4+ T cell response, 20 healthy donors of various HLA haplotypes
Method: The potential clinical immunogenicity of the chimeric MMP9 antibody AB0041 and the humanized MMP9 antibody AB0045 was assessed. An ex vivo human T cell activation assay, the EpiScreen (Antitope, Ltd., Cambridge, UK) was used. The T cell activation in the EpiScreen assay has been correlated to the antibody/protein therapeutic responses in patients. The response of CD4+ T cell in 20 healthy donors, representing a variety of HLA haplotypes, was examined. […] A positive control of KLH induced a response in 95% of the donors, with a magnitude of 6.34+/−2.77 (mean+/−standard deviation).

[10] = target: T1, MMP9; test: IHC binding of AB0045 in UC patient colon tissue; set-up: from tissue; host or cells: colon tissue (biopsies) of human ulcerative colitis patients
Method: Biopsy samples from human patients with ulcerative colitis (UC) and healthy individuals were examined by immunohistochemistry (IHC) using the MMP9-specific antibodies. Antibodies against myeloperoxidase (MPO, a neutrophil marker; Wirtz 2007), collagen IV (COLIV, basement membranes) and CD31 (endothelial cells) were used to assess disease severity and tissue infrastructure. Staining patterns of TIMP1 and MMP2 also were examined. PMK2 (a macrophage marker) also was assessed.
Target sequence in this assay (P14780 94-707): as the sequence (P14780 94-707, species assumed) above

Molecule: CNC(=O)[C@@H](NC(=O)[C@H](CC(C)C)[C@H](O)C(=O)NO)C(C)(C)C [Marimastat]
- average daily total MSS score ([1]; Lewis, 18 day): above 4.0
- average MSS score ([1]; Lewis, 25 day): 5.8
- H&E staining of hind knee joints [1]: histopathological evidence of fibroplasia was seen
- fibrosis and synovitis in limbs [1]: Fibrosis and synovitis were observed
- rats with slight limping, avoidance of one hind foot (gait score=1) [1]: five
- severity of fibrosis [1]: mild to severe
- severity of synovitis [1]: mild

Molecule: CN(Cc1cnc2nc(N)nc(N)c2n1)c1ccc(C(=O)N[C@@H](CCC(=O)O)C(=O)O)cc1 [methotrexate, reference compound]
- serum markers (TIMP-1, GM-CSF, MIP-2, MIP-1β, M-CSF-1, OSM, CXCL10, MCP-5, IL-12p70, INF-γ, IL-12, IL-7) [2]: consistent increase in these markers

Molecule: ENBREL [reference compound]
- reduction of the incidence of diarrhea [3]: similar
- mean endoscopy score [3]: significant improvement in endoscopy scores
- histopathology: inflammation, edema, mucosal necrosis [3]: significantly reduced all three aspects of disease pathology
- MMP9 expression in colon by IHC [3]: Reduction of MMP9
- serum markers (TIMP-1, GM-CSF, MIP-2, MIP-1β, M-CSF-1, OSM, CXCL10, MCP-5, IL-12p70, INF-γ, IL-12, IL-7) [2]: No reduction of serum markers

Molecule: Infliximab: chimeric therapeutic anti-TNF-alpha antibody Remicade (infliximab)
- patients achieving long-term remission completely free of corticosteroids [4]: 26%
- patients achieving remission by week 8 and remaining in remission through 54 weeks [4]: 20%
- patients failing to maintain response over 30 or 54 weeks [4]: approximately 60%

B1: AB0046: mouse anti-mouse MMP9 surrogate antibody, kappa light chain (SEQ ID NO: 45), IgG1 heavy chain (SEQ ID NO: 46) (antibody, listed as Mus musculus)
heavy: MGWSSIILFLVATATGVHSQVQLQQPGSVLVRPGASVKLSCTASGYTFTSYWMNWVKQRPGQGLEWIGEIYPISGRTNYNEKFKVKATLTVDTSSSTAYMDLNSLTSEDSAVYYCARSRANWDDYWGQGTTLTVSSAKTTPPSVYPLAPGSAAQTNSMVTLGCLVKGYFPEPVTVTWNSGSLSSGVHTFPAVLQSDLYTLSSSVTVPSSTWPSETVTCNVAHPASSTKVDKKIVPRDCGCKPCICTVPEVSSVFIFPPKPKDVLTITLTPKVTCVVVDISKDDPEVQFSWFVDDVEVHTAQTQPREEQFNSTFRSVSELPIMHQDWLNGKEFKCRVNSAAFPAPIEKTISKTKGRPKAPQVYTIPPPKEQMAKDKVSLTCMITDFFPEDITVEWQWNGQPAENYKNTQPIMDTDGSYFVYSKLNVQKSNWEAGNTFTCSVLHEGLHNHHTEKSLSHSPGK
light: MSSAQFLGLLLLCFQGTRCDIQMTQTTSSLSASLGDRVTISCSASQGISNYLNWYQQKPDGTFKLLIYYTSILHSGVPSRFSGSGSGTDYSLTISNLEPEDIATYYCQQYGWLPRTFGGGTKLEIKRADAAPTVSIFPPSSEQLTSGGASVVCFLNNFYPKDINVKWKIDGSERQNGVLNSWTDQDSKDSTYSMSSTLTLTKDEYERHNSYTCEATHKTSTSPIVKSFNRNEC
modifications: CHAIN (1)...(460) AB0046 IgG1 heavy chain; CHAIN (1)...(233) AB0046 kappa light chain
- reduction of the incidence of diarrhea [3]: about 30%
- mean endoscopy score [3]: significant improvement in mean endoscopy scores
- histopathology: inflammation, edema, mucosal necrosis [3]: significantly reduced all three aspects of disease pathology
- disease-associated increases in serum MCP-1, MCP-3 and eotaxin ([3]; terminal serum): reduced
- serum mediators KC/GRO, CXCL10, MPO, LIF, MIP-2, MCP-5 ([3]; terminal serum, multianalyte ELISA): systemic reduction
- serum IL-17A ([3]; terminal serum, near lower level of quantification): trend for a reduction
- serum IL-6 ([3]; terminal serum, not distinguished from AC-1 isotype control): reduction
- MMP9 expression in colon by IHC [3]: reduction in MMP9 expression
- body weight loss (AUC) ([3]; vs AC-1 isotype control or vehicle): significant protection against body weight loss
- endoscopic evaluation ([5]; Day 10, 30 mg/kg IP from day −1): efficacy of AB0046 prophylactic treatment was observed
- incidence of diarrhea ([5]; prophylactic administration): reduced the incidence of diarrhea
- inflammation, edema, necrosis and pathology sum score ([5]; study termination): reduced inflammation, edema, and necrosis
- soft tissue disease, joint damage and destruction (histology) ([6]; 50 mg/kg): reduced all measures of soft tissue diseases, joint damage and destruction
- qualitative and quantitative measurements of clinical disease (paw swelling, ankle diameter, body weight) ([6]; all doses (2, 10, 50 mg/Kg)): significant reversal/mitigation
- serum markers (KC/GRO, MIP-2, GCP-2, lymphotactin, MCP-1, MCP-3, CXCL-10, OSM, MIP-1β, MIP-1γ, Apo A-1) ([6]; terminal serum, ELISA): statistically significant reduction
- antibody titer in serum ([7]; 2 mg/kg dose level): not detectable
- antibody titer in terminal serum ([7]; dosing regimens of 10 and 50 mg/kg): measurable drug levels

B2: AB0045: humanized variant anti-MMP9 antibody, modified IgG4 (S241P), heavy chain variant VH3 (SEQ ID NO: 7), light chain Vk4 (SEQ ID NO: 12) (antibody, V domains shown)
VH: QVQLQESGPGLVKPSETLSLTCTVSGFSLLSYGVHWVRQPPGKGLEWLGVIWTGGTTNYNSALMSRFTISKDDSKNTVYLKMNSLKTEDTAIYYCARYYYGMDYWGQGTLVTVSS
VL: DIQMTQSPSSLSASVGDRVTITCKASQDVRNTVAWYQQKPGKAPKLLIYSSSYRNTGVPDRFSGSGSGTDFTLTISSLQAEDVAVYYCQQHYITPYTFGGGTKVEIK
modifications: modified IgG4 S241P constant region
- binding and inhibitory properties [8]: equivalent binding and inhibitory properties
- donors in which a response was induced [9]: did not induce response in any of the donors
- binding to MMP9 by IHC [10]: bound to MMP9 in UC patient colon tissue
